Usually kcat stands for the number of substrate molecules converted per active site and unit of time at saturation. As usually defined, the KM is the concentration of substrate that gives half-maximal velocity.

The values that follow come from the supplement of paper PMC7125110.

To fix the notation:
B1: glmS ribozyme (parent)
chain: AUAAAAGCGCCAGAACUACAGAAAUGUAGUUGACGAGGAGGAGGUUUAUCGAAUUUUCGGCGGAUGCCUCCAAA

Common to all, as to conditions: with glucosamine-6-phosphate
In series [1] the parent is B1. Kind of series: kcat; higher = faster cleavage; RNA array. The procedure, abridged: (§1)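 Weighted Michaelis–Menten fits across concentrations supplied kcat and KM, based on kobs from one- or two-exponential decay fits to normalised per-tile medians. The data came from barcoded ribozyme variants transcribed in situ by E. coli RNA polymerase on sequenced MiSeq chips and tracked at 37 °C by a hybridised Cy3 probe. Glucosamine-6-phosphate (40 μM to 10 mM) in HEPES/KCl/Mg(OAc)2 buffer was flowed in.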

Variants of B1 are the subject of series [2]. The series is described as follows: KM; higher = weaker cofactor use; RNA array. The procedure, abridged: as §1
Variants of B1 are the subject of series [3]. The series is described as follows: self-cleavage kobs at 640 uM GlcN6P; higher = faster cleavage; RNA array. In short, it runs like this:
as §1

Series [4] covers variants of B1. Kind of series: self-cleavage kobs at 2500 uM GlcN6P; higher = faster cleavage; RNA array. The procedure, abridged: as §1
Series [5] covers variants of B1. The series is described as follows: self-cleavage kobs at 10000 uM GlcN6P; higher = faster cleavage; RNA array. In short, it runs like this:
as §1

Variants of B1 are the subject of series [6]. The series is described as follows: self-cleavage kobs at 40 uM GlcN6P; higher = faster cleavage; RNA array. In short, it runs like this:
as §1

Series [7] covers variants of B1. Kind of series: self-cleavage kobs at 160 uM GlcN6P; higher = faster cleavage; RNA array. In short, it runs like this:
as §1

± gives the standard error. For some of these results: Fewer inactive variants are shown than the library holds. Bounds are passed on as bounds.

As to C58A C67A, in the series with glucosamine-6-phosphate [1], the kcat worked out at 0.000182 ± 3.1e-05 s⁻¹. Further, the KM with glucosamine-6-phosphate [2] was determined as 2300 ± 1000 µM. In the series with glucosamine-6-phosphate [3], the “self-cleavage kobs at 640 uM GlcN6P” value turned out to be 3.37e-05 ± 1.2e-05 s⁻¹. The “self-cleavage kobs at 2500 uM GlcN6P” value with glucosamine-6-phosphate [4] amounted to 0.000146 ± 4e-05 s⁻¹. Also, the “self-cleavage kobs at 10000 uM GlcN6P” value in the series with glucosamine-6-phosphate [5] is 0.000144 ± 2e-05 s⁻¹.

As to G32A G40C A48U, the turnover number (kcat) in the series with glucosamine-6-phosphate [1] is under 1e-05 s⁻¹. In the series with glucosamine-6-phosphate [6], the “self-cleavage kobs at 40 uM GlcN6P” value was under 1e-05 s⁻¹.

With G29C U31C, in the series with glucosamine-6-phosphate [1], the kcat was 0.000387 ± 3.9e-05 s⁻¹. In addition, the Michaelis-Menten constant (KM) with glucosamine-6-phosphate [2] stood at 3280 ± 690 µM. In the series with glucosamine-6-phosphate [3], the “self-cleavage kobs at 640 uM GlcN6P” value was 5.78e-05 ± 1.8e-05 s⁻¹. Further, the “self-cleavage kobs at 2500 uM GlcN6P” value with glucosamine-6-phosphate [4] turned out to be 0.000184 ± 3.4e-05 s⁻¹. The “self-cleavage kobs at 10000 uM GlcN6P” value with glucosamine-6-phosphate [5] was 0.000284 ± 4.2e-05 s⁻¹.

As for A39U G40A C67A, the kcat with glucosamine-6-phosphate [1] worked out at 0.000278 ± 2.3e-05 s⁻¹. Besides, the KM in the series with glucosamine-6-phosphate [2] worked out at 760 ± 190 µM. The “self-cleavage kobs at 640 uM GlcN6P” value with glucosamine-6-phosphate [3] amounted to 0.000124 ± 3.1e-05 s⁻¹. The “self-cleavage kobs at 2500 uM GlcN6P” value with glucosamine-6-phosphate [4] is 0.000245 ± 6.5e-05 s⁻¹. Besides, the “self-cleavage kobs at 10000 uM GlcN6P” value with glucosamine-6-phosphate [5] was found to be 0.000247 ± 5e-05 s⁻¹.

A12G A39G: the kcat with glucosamine-6-phosphate [1] amounted to 0.0017 ± 0.00036 s⁻¹. Moreover, the Michaelis constant (KM) with glucosamine-6-phosphate [2] came to 4960 ± 1500 µM. Moreover, the “self-cleavage kobs at 160 uM GlcN6P” value with glucosamine-6-phosphate [7] was 3.92e-05 ± 9.9e-06 s⁻¹. In addition, the “self-cleavage kobs at 640 uM GlcN6P” value in the series with glucosamine-6-phosphate [3] worked out at 0.00022 ± 2.9e-05 s⁻¹. Also, the “self-cleavage kobs at 2500 uM GlcN6P” value with glucosamine-6-phosphate [4] is 0.000622 ± 9e-05 s⁻¹. Moreover, in the series with glucosamine-6-phosphate [5], the “self-cleavage kobs at 10000 uM GlcN6P” value was 0.00109 ± 0.00014 s⁻¹.

On to C61A C68G, for which, in the series with glucosamine-6-phosphate [1], the kcat is 1.96e-05 ± 3.4e-06 s⁻¹.

As for A12G U56G, the kcat in the series with glucosamine-6-phosphate [1] was determined as 0.000904 ± 9.3e-05 s⁻¹. In addition, the KM in the series with glucosamine-6-phosphate [2] stood at 6610 ± 950 µM. The “self-cleavage kobs at 640 uM GlcN6P” value in the series with glucosamine-6-phosphate [3] amounted to 8.35e-05 ± 8.6e-06 s⁻¹. In the series with glucosamine-6-phosphate [4], the “self-cleavage kobs at 2500 uM GlcN6P” value stood at 0.00024 ± 2.2e-05 s⁻¹. In addition, the “self-cleavage kobs at 10000 uM GlcN6P” value in the series with glucosamine-6-phosphate [5] was found to be 0.000553 ± 5.7e-05 s⁻¹.

In the case of A52U C67A, in the series with glucosamine-6-phosphate [1], the kcat was determined as 0.000206 ± 1.5e-05 s⁻¹. The KM with glucosamine-6-phosphate [2] amounted to 1480 ± 240 µM. In addition, the “self-cleavage kobs at 640 uM GlcN6P” value with glucosamine-6-phosphate [3] is 6.53e-05 ± 8.3e-06 s⁻¹. Moreover, the “self-cleavage kobs at 2500 uM GlcN6P” value with glucosamine-6-phosphate [4] is 0.000124 ± 1.6e-05 s⁻¹. In addition, in the series with glucosamine-6-phosphate [5], the “self-cleavage kobs at 10000 uM GlcN6P” value was 0.000183 ± 2.1e-05 s⁻¹.

Turning to A36U U45A C50G, the kcat with glucosamine-6-phosphate [1] is under 1e-05 s⁻¹. The “self-cleavage kobs at 640 uM GlcN6P” value with glucosamine-6-phosphate [3] is under 1e-05 s⁻¹. Moreover, in the series with glucosamine-6-phosphate [4], the “self-cleavage kobs at 2500 uM GlcN6P” value is under 1e-05 s⁻¹.

As to A12C G13U C71G, the kcat with glucosamine-6-phosphate [1] is 1.5e-05 ± 5.4e-06 s⁻¹.

With C10U U47C, the kcat with glucosamine-6-phosphate [1] is under 1e-05 s⁻¹. In the series with glucosamine-6-phosphate [6], the “self-cleavage kobs at 40 uM GlcN6P” value was under 1e-05 s⁻¹. For the same variant, the “self-cleavage kobs at 640 uM GlcN6P” value in the series with glucosamine-6-phosphate [3] was under 1e-05 s⁻¹.

Turning to G32A G40C, the kcat in the series with glucosamine-6-phosphate [1] was found to be 0.00047 ± 8.1e-05 s⁻¹. In addition, the KM with glucosamine-6-phosphate [2] came out at 5730 ± 1600 µM. In the series with glucosamine-6-phosphate [3], the “self-cleavage kobs at 640 uM GlcN6P” value came out at 5.53e-05 ± 9.2e-06 s⁻¹. In addition, in the series with glucosamine-6-phosphate [4], the “self-cleavage kobs at 2500 uM GlcN6P” value was 0.000126 ± 1.8e-05 s⁻¹. The “self-cleavage kobs at 10000 uM GlcN6P” value with glucosamine-6-phosphate [5] is 0.000309 ± 3.3e-05 s⁻¹.

Regarding A33C U56A, the kcat with glucosamine-6-phosphate [1] is 0.000161 ± 5.6e-05 s⁻¹. For the same variant, in the series with glucosamine-6-phosphate [5], the “self-cleavage kobs at 10000 uM GlcN6P” value worked out at 8.05e-05 ± 1.2e-05 s⁻¹.

In the case of G41U U65A, the kcat in the series with glucosamine-6-phosphate [1] amounted to 0.000223 ± 4.3e-05 s⁻¹. In the series with glucosamine-6-phosphate [2], the KM came out at 1090 ± 470 µM. Moreover, the “self-cleavage kobs at 640 uM GlcN6P” value in the series with glucosamine-6-phosphate [3] was determined as 8.03e-05 ± 8.5e-06 s⁻¹. Moreover, in the series with glucosamine-6-phosphate [4], the “self-cleavage kobs at 2500 uM GlcN6P” value was 0.000238 ± 3.1e-05 s⁻¹. In addition, the “self-cleavage kobs at 10000 uM GlcN6P” value with glucosamine-6-phosphate [5] is 0.000183 ± 2e-05 s⁻¹.

For G9C G37C, in the series with glucosamine-6-phosphate [1], the turnover number (kcat) came out at 1.88e-05 ± 8.6e-06 s⁻¹. Moreover, the “self-cleavage kobs at 10000 uM GlcN6P” value with glucosamine-6-phosphate [5] was under 1e-05 s⁻¹.

Regarding G13U U30G, the kcat with glucosamine-6-phosphate [1] was found to be 0.000187 ± 3.9e-05 s⁻¹. Besides, the KM with glucosamine-6-phosphate [2] was found to be 2660 ± 1200 µM. The “self-cleavage kobs at 640 uM GlcN6P” value with glucosamine-6-phosphate [3] is 2.49e-05 ± 9.4e-06 s⁻¹. Moreover, in the series with glucosamine-6-phosphate [4], the “self-cleavage kobs at 2500 uM GlcN6P” value was 0.000105 ± 1.2e-05 s⁻¹. The “self-cleavage kobs at 10000 uM GlcN6P” value with glucosamine-6-phosphate [5] was determined as 0.000136 ± 2e-05 s⁻¹.

Consider C34G G37U, for which, in the series with glucosamine-6-phosphate [1], the kcat was under 1e-05 s⁻¹. Further, in the series with glucosamine-6-phosphate [3], the “self-cleavage kobs at 640 uM GlcN6P” value is under 1e-05 s⁻¹. The “self-cleavage kobs at 10000 uM GlcN6P” value with glucosamine-6-phosphate [5] was under 1e-05 s⁻¹.

For the variant A42G A48U, the kcat in the series with glucosamine-6-phosphate [1] was 0.00077 ± 0.00015 s⁻¹. For the same variant, the KM with glucosamine-6-phosphate [2] stood at 3220 ± 1100 µM. Further, the “self-cleavage kobs at 640 uM GlcN6P” value with glucosamine-6-phosphate [3] came to 0.000148 ± 4.3e-05 s⁻¹. Also, the “self-cleavage kobs at 10000 uM GlcN6P” value in the series with glucosamine-6-phosphate [5] worked out at 0.000576 ± 0.00013 s⁻¹.

As for U30A C58G G59A C70G, the kcat in the series with glucosamine-6-phosphate [1] came out at 2.1e-05 ± 2.6e-06 s⁻¹.

Regarding G63C C67G, in the series with glucosamine-6-phosphate [1], the kcat was under 1e-05 s⁻¹. Further, the “self-cleavage kobs at 40 uM GlcN6P” value with glucosamine-6-phosphate [6] was under 1e-05 s⁻¹.
